From paper PMC11202230, “The Improved Antineoplastic Activity of Thermophilic L-Asparaginase Tli10209 via Site-Directed Mutagenesis” (Biomolecules, 2024)
Residue numbers refer to the chain shown, from its start. Names may count otherwise.

B1: L-asparaginase Tli10209 (Thermococcus litoralis DSM 5473; D50G/T70A) (protein)
chain: MSEKRKLERRGAEDMKRILIIGTGGTIASAKTDAGFKSVLTIDEILEKAGIKLKNGYEIDTRNILNIDSALIQPEDWERIAKEVYKALEDYDGIVITHGTDTLAYTASMLTFMIRGINKPVVLTGSMRPVTEEESDAPRNLKAAIRFAMEDVSGIFVAFMDKIMLGCRTSKIRALGLNAFMSINYPDVAYVKGEEVIYNLPQKRFKPKGEPVLDTKYEPRVVFIRLTPGLDGNAIDALVKAGYRGIVLEGYGAGGIPYRKRDILSKIREITPQIPVVMTTQALYDGVDLTKYEVGRKALEAGIIPAKDMTKETTITKLMWALGHTKNVEEVKEIMHTNYADEIEG
B2: L-asparaginase Tli10209 (Thermococcus litoralis DSM 5473; T70A) (protein)
chain: B1 chain with G50D
B3: L-asparaginase Tli10209 (Thermococcus litoralis DSM 5473; K48L) (protein)
chain: B1 chain with K48L, G50D, A70T
B4: L-asparaginase Tli10209 (Thermococcus litoralis DSM 5473; D50G) (protein)
chain: B1 chain with A70T
B5: L-asparaginase Tli10209 (Thermococcus litoralis DSM 5473) (protein)
chain: B1 chain with G50D, A70T
B6: L-asparaginase Tli10209 (Thermococcus litoralis DSM 5473; F36Y/T70A) (protein)
chain: B1 chain with F36Y, G50D
B7: L-asparaginase Tli10209 (Thermococcus litoralis DSM 5473; F36Y) (protein)
chain: B1 chain with F36Y, G50D, A70T
B8: L-asparaginase Tli10209 (Thermococcus litoralis DSM 5473; K48L/T70A) (protein)
chain: B1 chain with K48L, G50D

substrate: NC(=O)C[C@H](N)C(=O)O; experiment: Nessler reagent assay of ammonia, Michaelis-Menten fit; assay type: biochemical, Thermococcus litoralis; details: pH 10, 80 °C, 0.5-18.0 mM L-asparagine, free enzyme
Description: Nessler reagent assay of ammonia, Michaelis-Menten fit on L-asparaginase Tli10209

Point of comparison: B7, Km 7.00 mM. Against it:
- B1 — 2.6-fold lower, 2.68 mM
- B2 — within 1.5-fold, 7.90 mM
- B3 — within 1.5-fold, 9.62 mM
- B4 — within 1.5-fold, 9.03 mM
- B5 — within 1.5-fold, 6.78 mM
- B6 — within 1.5-fold, 6.28 mM
- B8 — within 1.5-fold, 6.65 mM

Point of comparison: B2, kcat 4150 s⁻¹. Against it:
- B1 — 2-fold lower, 2050 s⁻¹
- B3 — within 1.5-fold, 5080 s⁻¹
- B4 — within 1.5-fold, 3890 s⁻¹
- B5 — 1.8-fold lower, 2300 s⁻¹
- B6 — within 1.5-fold, 2930 s⁻¹
- B7 — 1.7-fold lower, 2500 s⁻¹
- B8 — 1.5-fold lower, 2760 s⁻¹

Point of comparison: B6, kcat/Km 466000 M⁻¹ s⁻¹. Against it:
- B1 — 1.6-fold higher, 764000 M⁻¹ s⁻¹
- B2 — within 1.5-fold, 525000 M⁻¹ s⁻¹
- B3 — within 1.5-fold, 528000 M⁻¹ s⁻¹
- B4 — within 1.5-fold, 431000 M⁻¹ s⁻¹
- B5 — within 1.5-fold, 340000 M⁻¹ s⁻¹
- B7 — within 1.5-fold, 357000 M⁻¹ s⁻¹
- B8 — within 1.5-fold, 415000 M⁻¹ s⁻¹
